1 substance from patent publication EP2404612A1, “Diagnosis, prophylaxis and therapy of Alzheimer's disease and other neurodementing disorders” (Balakrishnan, Karthikeyan, priority 2010, dated 2012) can be followed below.

The data set can be described thus: CD spectra analysis of ß-sheet conformation. The class given is physicochemical. Particulars: 62.5 µM in sodium carbonate (0.05 mM)/ SDS (37.5 mM) buffer, 20°C, instantly after resuspending in buffer. As for the experimental part: To compare the ß-sheets formed by the wild type and the mutated trimer, respectively, CD spectra analysis was performed. Both peptides were measured at a concentration of 62.5 µM in sodium carbonate (0.05 mM)/ SDS (37.5 mM) buffer with a JASCO J-810 spectroplarimeter (JASCO, Easton, MD, USA). Far-UV CD spectra (190-260 nm) were recorded at 20°C using a quartz cuvette with an optical path length of 1 mm. The scanning speed was set at 20 nm/min with a response time 4 second and bandwidth 2 nm.

Take “wild type Aβ: wild type Aβ peptide compared with mutated Aβ (1-40; G29Ile,G33Ile) in CD spectra; length not stated”: the ß-sheet is 1%.
